These are literature values, as cited in paper PMC7680388.

This data set addresses Ubiquitin (Homo sapiens) (UniProt P0CG48).

Chain of Rpn13 (Q16186 2-407): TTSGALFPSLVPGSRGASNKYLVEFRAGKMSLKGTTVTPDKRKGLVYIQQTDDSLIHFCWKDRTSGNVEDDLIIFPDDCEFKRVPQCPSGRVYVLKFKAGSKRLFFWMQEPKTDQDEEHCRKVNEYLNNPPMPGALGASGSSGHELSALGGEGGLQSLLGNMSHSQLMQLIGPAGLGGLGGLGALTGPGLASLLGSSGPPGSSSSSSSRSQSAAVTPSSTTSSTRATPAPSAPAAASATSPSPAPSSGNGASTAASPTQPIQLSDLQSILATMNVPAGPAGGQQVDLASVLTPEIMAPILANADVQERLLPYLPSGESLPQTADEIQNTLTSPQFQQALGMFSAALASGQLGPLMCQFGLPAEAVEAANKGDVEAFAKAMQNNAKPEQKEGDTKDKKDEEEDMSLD

Regarding Rpn13 (from UniProt Q16186), the Kd was 40 µM.
